A short description of this data set: label from the status in PepcDB records.
On to “MQPVEASDYWELARLSQPAVSPTGDRVAYVRTTAERDGDTGQETASVHVAPVGGGGSRRFTAADGTDAEPAWSPTGDRLAFVSTRGDAGGGRPQLWVVPVDGGEATRITDVIGGVSNIAWGPDGDRVAFLQAVRPAERAEELDREHDGEYERDTPDPRVIDRQMYRGHTSYRDGARRHVYVADLAAGRVDRVTAGVAECGGPAWGDDGTLYYPIRRGLDADDRLEWAIEAATPADSADSTVVTTVEGMGPTLAVHGSRVAYTTTPADDPTLTQTAVEVFDRDTGATDRLTDGVDRTVAERTAGHAPEWGPDGEHLYVCTPDEGGYVLRRVAADTGDDRVVLAGDRHVHAFSVSADAVAVVQSEWDHPGEVVAATPMGGEEVTLTRANRDYLDERAVSKPESVWIDGPAGDIQGWVLTPPEFDPEETYPLVVNVHGGPHLMWSAAGTMWHEFQTLAARGYVVFWCNPRGSTGYGQEWLRAVERDWGAVTLADVMAGVAAVTDRDYVDADNAFITGGSFGGFMTGWAVGHTDAFAGAVAQRGVYDLTGFYGTTDAYALVEGEFDTDPVRDNAFLWAQSPAAHTDAVDTPTLLVHSEADYRTPANTAELFYRLLKKHGVDTRLVRYPGEGHDLSRSGDPGHVVDRIERIAAWFDGYSDHHEAAPVLETDRPGAAADE”, for which the protein production result is “failed”. As to “KLGMKPVSDVSRVTIKRAKNVLFVISKPDVYKSPNAETYVIFGEAKVDDLSSQLQTQAAQRFKMPDVTSMLPNAGSEATMAPLAEEEDEDDVDDTGVEARDIDLVMTQAGVSKAKAVSALKANDGDIVSAIMELTT”, the protein production result is “failed”. Consider “MPDLMHSELTMSGPEQSLLAGALLGAGLPADAHRHLELAGRDYQSEALAEQHLREAHLLAPDHAAVLIGLYRFYFYKGRLGEALEVAQACLCKAARDNGLASDWRKVRRGDAEFSSYSAVLPRFYLFALKAYAYLQMRLGQLDEGHAAVEKLLELDPTDKVGAAVLLDVWRRIGQDDDD”, for which the protein production entry was “failed”. On to “MTAQLISPTIHGILDYLLGAVLVVAPSVLGLPTGPAVIAYAVGGAHLAMSLLTGYAPGALRVIPFWAHGAVEAAGWAGLLVFLGLLTAPADGLFLASGVGILVVSALTDYGVETDGVRLRARRHAHARP”, for which the protein production entry is reported as “failed”. The result for “MSEQPSSVSGVKKVAIIPEIHISAPVLAKIVSYVAEESVDALKPFVKAGPLFKSAVYSKETLSCVRLDKSRYYMWWSTTHSIYYHFFTKSLEAKNPHALNAVLYKPIAYENFAAECYRATLWAELYGEYEA” reads “failed”; that for “MVSVNSSHCFYNDSFKYTLYGCMFSMVFVLGLISNCVAIYIFICVLKVRNETTTYMINLAMSDLLFVFTLPFRIFYFTTRNWPFGDLLCKISVMLFYTNMYGSILFLTCISVDRFLAIVYPFKSKTLRTKRNAKIVCTGVWLTVIGGSAPAVFVQSTHSQGNNASEACFENFPEATWKTYLSRIVIFIEIVGFFIPLILNVTCSSMVLKTLTKPVTLSRSKINKTKVLKMIFVHLIIFCFCFVPYNINLILYSLVRTQTFVNCSVVAAVRTMYPITLCIAVSNCCFDPIVYYFTSDTIQNSIKMKNWSVRRSDFRFSEVHGAENFIQHNLQTLKSKIFDNESAA”, “failed”. For “LRQQRLIWVVLALSCVIVISLLMLWRYTRFRSEAEAALIAETGFRRAMENSMSTGMRVLDMEGRIAYVNPAFCRMIGWNEADLIGRSPPFPYWVPGRHDQHQHTLEVLTSGKTPSSGLEVEAQRRDGSRFTARMYVSPLLDPNGDQIGWMTSMTDIT”, the protein production result was “failed”. For “MANLKSLPVGDKAPEVVHMVIEVPRGSGNKYEYDPDLGAIKLDRVLPGAQFYPGDYGFIPSTLAEDGDPLDGLVLSTYPLLPGVVVEVRVVGLLLMEDEKGGDAKVIGVVAEDQRLDHIQDIGDVPEGVKQEIQHFFETYKALEAKKGKWVKVTGWRDRKAALEEVRACIARYKG”, the protein production entry is “not failed”.

As to “DDLLIVRGVNLYPSEIEHAVLDINGVAPYYRIDLYEEDNLDVMELTVERAEGSSKDHSELRDDVLSRLQSVLSFTPDQLNLVNPGTIERTEVGKIQRVYDHRN”, the protein production entry is “failed”.

Consider “MSSITADNAGQYGDSRKLAARARLHSQYTIAETAWFPWVAAQLSLKPGDRVLDVGCGPAWFWAATTGLLPADLDLTLTDLSPGMVDEAVARCSALPFGSVRGCQADAAALPFEDGAFDAVVAMHMLYHLTDPVAGIADMSRVLKPGGLLAVTTNGAGNMREIYALTTLFGSAPSDPAAEAFGYDAAERSMRSQFGNVTMSQHPASLRITEPEDVFLALTSYPPGDGAGEPQLTRFRQAIADAFSQRSGVLEVSKETALFLSRKTV”, for which the protein production entry was “failed”. For the sequence “MSTDSPLRTTASTCCYCGVGCGVLIEHDGERILGVQGDPRHPANFGRLCSKGASLHLTGDLQARALYPQLRLGKQLARARSDWESALEHAAGRFAETIREHGPDSVAFYISGQLLTEDYYAFNKLARALVGTNNIDSNSRLCMSSAVVGYKRSLGADAPPCSYEDLDCADCVLIAGSNMAFAHPVLFRRLEAAKAARPEMRIVVIDPRRTDTCELADLHLALLPGTDVALFHGILHILLWEDWIDRSFIAEHTEGFADLKELVRDYTPAAVADICGIDRADLQRCAEWIGRSPRFLSLWCMGLNQSSAGSAKNSALINLHLATGKIGRAGCGPFSLTGQPNAMGGRETGSLANLLPGHREAADPGHRAEVAHYWGVEQLPTSPGLSAIELFDAVHDGRIKALWIACTNPAQSLPDQRKIHEALARCPFVVVQEAFAGTETCQYADLLLPAASWGEKEGSVTNSERRISHVRRAVPPPGEARQDWNIVCDFARRLEGHLRPAKPGLFAFADSRSLFDEYKLLTAGRDLDLSGLSYALLDRLGPQQWPFPTGAEQGTARLYADGRFPTASGRAQLVAEPYRAAQEKRDARYPLTLNTGRLRDQWHGMSRTGTCARLFGHEEEALVHLHPEELRRRQLLDGQLVRLKSRRGALVLPVSADDSVRPGQAFLPMHWGDRFLKGLGCNVLTLPAFDPLSKQPELKHAGVQVESVELPWRLFALVETDIQARFEALRALCEVFDHASFSLAGRERPALLVSAAHHEAPGADLLERIDRQLELLDGPILAYDDPRRAIGKRVRLEDGRIVAVRLAGETLARDWLKELWLTGRADSELRRWLLAPLGAAPGRPSQGAGGKTLCSCQNVSQQTVLGGIARGLDLDGLKREFGCGTGCGSCVPEIKRLLAAP”, the protein production entry is reported as “failed”. On to “KVKELNLHELCAVCLEDFKPRDELGICPCKHAFHRKCLIKWLEVRKVCPLCNMPVLQLAQL”, for which the protein production result is “not failed”. For “MSAATPQPPAPHVVLGSGPAGTALARELVRRGHPVRLVDRRATGPAVEGVERFPADVGTADGARAAIRDAAVVYHCVNVAYHLQVEVMPRVQEAVLAAVEESGARLVVLDTVYPYGETGGAVMTEDSPWKATSRKGRMRAELDERYLAAHRSGRARVVLGRSADFVGPGVLNSSLGAAVFPGALTGGDVVAMGNIDLPHSYTGIEDVAAALATLGERPDGDGRVWHLPTAPAVSTREIHALIEKRVGRPLNVVVLERPRPFGPFDEQLMAEYEEMFYQHTEAQIMDSGAFERFFEAAPTPLADTLDATVTWYEAWLRSR”, the protein production result is given as “failed”.

Take “MPWQQQPIRYSADLEKPSPREQADIEKIMAKLLKNNERAYDKYKHGLRDAHAKSHAILRGELIVNEGLPPELAQGLFAEPRTYPVIARLSSTSGVRRSDKTRGVRGLGLKVLGVQGEKILPDDSSTNQDFVMVTHEDFLFADAHAYAGLGMITASLLARLSDQALWLGSGLLDLVSKAGIKLPDNLMVFVAPNRPILGLEFFSSAPFRHGDHVAKYRFAPASENVKALSGQLLPRNPAPEQHRDMIAEFFADQTAEFDFSAQLCTDPVAMPIEDAGKNWDKSISPYVSVAKIVFGPQNPYSALRRAYGDDVLAFNSWRGLAEHRPLGSINRLKKTVYESSADYRHRVNRIDRHEPLEHHHHHH”: the protein production entry is on record as “failed”. Consider “MPAKDVQICPIAVDTTVFRSRTWDRLKFEIEYGLQRGTTANSYLISADKIALFDPPGESFTDNFVGTLIQRLDLNSLDYVILGHVNANRAHTLKLLLSLAPQATIICSNPAAQNLEKLLADAEVNNPIQVMKGNDHLDLGRGHELTFIPTPSPRYPGQLCTYDPRTEILFTDKLFGAHVCGDQVFDEGWTIYQEDRRYYFDCLLAPAAAQVSAALNKLEAYPAQTYAPSHGPLVRYGLRELTRNYQQWLSEQQAQALEHHHHHH”, for which the protein production result is recorded as “failed”. As for “MLKGFNSGDISYEILEKKKENIEQQALERFLEEKSEKENKHIPKEDMLFNSKDSIAMERIVGKNDLFPISYLQIGLNISKSVCRISIRDSRGVVVGYGTGFLVAPNIILTNNHVINSYEVASNSIAEFNYQDDENFMPCPTYNFRLNPQTFFITNVKLDFTLVALNENVTNQKHLEDFGYLKMTQKEGTILPEEYVSIIQHPKGGPKSVTLRENKVSGLKENFIHYLTDTEPGSSGSPVFNDQWTLVALHHSGVPNPEIKDEWIANEGILISAIVNYLAKKYSSLKENEQAIIKEIVPDIELPKENNITSSVDDEPLGYNPLFLGKDYEIPLPKLSKEMEKDTAKTEDGNYVLDYIHFSIVMKKSRGLAYFTAVNIDGTDAVKIRRTADNWKFDPRISQNYQYGDEVYVNNDLDRGHLVRRTDPNWGKNALKANEDTFYFTNSTPQHKNLNQKTWVELEDYIFRNAVLNQFKVSVFTGPVFREDDMIYRQKYQIPAEFWKVVVMLKEDGNISATAYLQTQKNMIENLEFAYGEYKTYQVPVRNIEKLTGLDFGNLSKFDPMANIEATGIVITGPESIKF”, the protein production entry is on record as “failed”. Take “AQTRLLIQNRLVAQRDEFDNVFHSIRDGVITYDTDFRIHFTNRSLLKMLHLPKDEAARPYEGLPAGSIFKIYNNGKEILRPMLKQVVTEESSVVIPENSFMQEVHSGSYFPVSGEVVPIRAHGKITGMALSARNIS”: the protein production entry is “failed”.

On to “MSENQKEVSPPQAISVKSEASSSIFSKPISTSSPAGLAAAQRVTPGKLSTLLLEMGPLAIRHITQTLCLDIPCFKDLSSSKQRRLIMSAMESGDKEKSVVFEKIGWGQWSAKRVDPANFDKELEATNFANAKVKDLISQESQRRKSNNSNSNSGGKVEMPMKVEHNITNIDGATTPPTAVASTTIPVNIKRSKSPLAAANVVYIDENALASEDEDEEFDEDDHHLHYQNKSRNSSNNFGKSSNGDPYSFGRRRSQVVFADSTPENIEHEIIAQKIRPLLRNRRRSSIKPHTPFISKLNTHQDSSYLSPNTTSTTTPSNNNSNSNQAKIDLEKLTATSEPTSRRASRLSVSKESSIRSTLFPNKNYLIVTTNPNSKATSVSTSPKLEEQMNVSSNPIVLSDKEKHRVASQHLNGESSPQLVPHSHHQPHSDTDEEDWESIGAASLRNNSLAPNIDSVASSTNGVVSPKPTNPSFTNSQNGDIEPPLQHDQQKHEQQPRNGEDNSAAFLLMSLKS”, for which the protein production entry is given as “not failed”.

As to “MRWNICVVGAGKIGQMIAALLKTSSNYSVTVADHDLAALAVLNRMGVATKQVDAKDEAGLAKALGGFDAVISAAPFFLTPIIAKAAKAAGAHYFDLTEDVAATNAVRALAEDSQT”, the protein production result is recorded as “not failed”.

As for “LRELDWFARRGLKEPNLAELLDLVALGSVADVVPLDANNRILVHQGLARIRAGRARPGLRALLEVAGRPPVRITSTDLGFILGPRLNAAGRLDDMSLGIECLLCDDEALARDMAVQLDQLNQDRKAIEQGMQREALAQLKELSLEQLPFGLCLFDADWHQGVIGILASRLKERYHRPTIAFADAGDGSLKGSARSIPGFHIRDALDAVAARHPGLISKFGGHAMAAGLSLPQENFGAFSAAFDAEVRRQLAEEDLAGRLLSDGQLSIQEFHLELARALRQAGPWGQHFPEPMFHGVFQLVQQRIVGERHLKLVLKSECGSLQLDGIAFNIDREQWPNPTVRWAELAYKLDVNEFRGQESVQLMIVHMAPR”, the protein production result is listed as “failed”.
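Further: failed if final PepcDB status was selected cloned or expressed and not failed if soluble or beyond.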
